In one data set the test system is SR-BI. Put plainly: DiI uptake from DiI-labeled PALM or HDL by BHK(SR-BI) cells, SR-BI induced or un-induced. It is filed as cell-based, human. As to conditions: for Un-induced DiI Uptake: un-induced BHK(SR-BI) cells. As for the experimental part: A 40 μl aliquot of 10 mM peptide was combined with 56 μl of 20 mM POPC. 24 μl 20 mM SM(egg) and 16 μl 2.5 mM DiI in a small glass vial. The peptide and lipid solutions were prepared in 80% TBA/20% water. The DiI stock was prepared in 92% TBA/8% water. The combined solution was lyophilized and the resultant cake was rehydrated by addition of 0.2 ml of Dulbecco's phosphate buffered saline. The solution was briefly swirled, water bath sonicated (for approx. 15 sec.) and placed in a 50° C. heating block for 20 minutes.
SR-BI interaction studies are done with BHK(SR-BI) cells stably transfected with an inducible human SR-BI gene by means of the GeneSwitch™ System (Invitrogen) (Vickers et al. (2011) Nat. Cell Biol. 13:423-433) . The cells were plated (96-well plate) (8000 cells/well) in growth medium (Dulbecco's modified Eagle medium containing 10% fetal bovine serum) containing 200 μg/ml each of zeocin and hygromycin. After 24 hours incubation, the growth medium was removed and replaced with 0.2% bovine serum albumin in Dulbecco's modified Eagle medium. The medium of cells to be induced for SR-BI expression also contained 10 nM mifepristone, added from a DMSO stock solution. DMSO alone was added to the medium of uninduced cells. The induction medium was removed after 24 hours and replaced with medium containing DiI-labeled PALM (32 μg peptide/ml) or DiI-labeled HDL (19 μg protein/mL) (Kalen Biomedical, Montgomery Village, MD). The test media were prepared by diluting an aliquot of DiI-labeled PALM (Example 10) or the DiI-labeled HDL in 0.2% bovine serum albumin in Dulbecco's modified Eagle medium. The solutions were passed through 0.2 μm pore size, polyethersulfone, sterilization filters before use. The cells were incubated for 4 hours. Next, the cells were washed 3 times with 0.1% albumin in Dulbecco's phosphate buffered saline (with calcium and magnesium). The last wash was replaced with 200 μl/well of t-butanol/water (95%/5%). The covered plate was left to stand at room temp (20-21° C.) for 30 min with occasional shaking. The fluorescence in each well was detected at 520 nm excitation and 580 nm emission with a 550 nm cutoff filter on a […] Gemini fluorescence plate reader (FIG. 9).

Data set [1] in a line: Stability of peptide/phospholipid complexes by visual inspection. The format is physicochemical. As to conditions: SM, PC/SM 70/30, SEQ ID No. 25: peptide to phospholipids 1/4. As for the experimental part: Separate stock solutions of peptide and phospholipids were prepared in a solvent mixture composed of 80% tert-butyl alcohol (TBA) and 20% water to obtain separate solutions of 10 mM peptide, 20 mM 1,2-dioleoyl-sn-glycero-3-phosphocholine (DOPC) or 20 mM 1-palmitoyl-2-oleoyl-phosphatidylcholine (POPC) and 20 mM egg SM. […] The solutions were combined in a 1.5 ml glass vial, frozen (−70° C.), and lyophilized at −5 to −10° C. overnight. The resultant lyophilized cakes were rehydrated by addition of Dulbecco's phosphate buffered saline followed by gentle swirling of the contents. Formation of PALM was completed by incubating the PALM solution at 50° C. for 10 minutes. […] The qualities of the PALM preparations were evident in their appearance. A visually clear preparation indicated any nanoparticles that had formed were less than approximately 40 nm diameter, based on the Tyndall effect.

Data set [2] has as its target human scavenger receptor class B, type 1 (SR-BI) (human) (UniProt Q8WTV0). The experiment in a line: cell-based or functional assay.
Data set [3] concerns the target T1, human scavenger receptor class B, type 1 (SR-BI) (human, UniProt Q8WTV0 1-552).
T1 sequence (looked up): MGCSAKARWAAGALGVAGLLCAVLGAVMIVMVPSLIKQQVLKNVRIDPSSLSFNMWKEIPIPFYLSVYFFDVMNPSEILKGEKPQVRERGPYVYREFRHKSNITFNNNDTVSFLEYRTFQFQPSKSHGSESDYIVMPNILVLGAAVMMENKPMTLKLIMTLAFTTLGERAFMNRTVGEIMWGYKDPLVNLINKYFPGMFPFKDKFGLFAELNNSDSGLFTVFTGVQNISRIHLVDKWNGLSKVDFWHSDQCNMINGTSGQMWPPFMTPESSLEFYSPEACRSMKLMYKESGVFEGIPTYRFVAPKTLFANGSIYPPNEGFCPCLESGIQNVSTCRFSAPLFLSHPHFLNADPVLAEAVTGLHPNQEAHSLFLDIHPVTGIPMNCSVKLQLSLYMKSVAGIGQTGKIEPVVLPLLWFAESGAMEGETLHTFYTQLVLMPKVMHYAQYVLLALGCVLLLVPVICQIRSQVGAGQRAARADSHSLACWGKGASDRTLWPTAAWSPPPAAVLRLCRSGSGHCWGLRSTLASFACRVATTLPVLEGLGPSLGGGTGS
Put plainly: cell-based or functional assay.

[4] abbreviates: 4 hours, PALM prepared with the peptide 32 μg/ml, HDL 19 μg/ml, average (n = 4) ± SEM.
The mark [5] stands for this setting: complex of the peptide with POPC, C16PTX/PL 0.
The mark [6] stands for this setting: complex of the peptide with POPC, C16PTX/PL 0.1.
[7] abbreviates: complex of the peptide with DOPC, C16PTX/PL 0.
[8] abbreviates: complex of the peptide with DOPC, C16PTX/PL 0.1.

Non-standard residues stand in square brackets, D forms with d. No end group written: not given here. Aib = CC(C)(N)C(=O)O

Turning to DVFQKLVELFNQLLEKWKQV [SEQ ID NO: 26], in the data set on SR-BI (setting [4]), the “Un-induced DiI Uptake” value stood at 0.49 ± 0.04 pmol/µg/mL. For the same molecule, the “Stability of Peptide/Phospholipid Complexes by Visual Inspection” value in data set [1] (setting [5]) was “Clear (A visually clear preparation indicated any nanoparticles that had formed were less than approximately 40 nm diameter)”; in data set [1] (setting [6]) it was “Turbid”.
“DVFQKL{AIB}ELFNQLLEKWKQV (DVFQKL[Aib]ELFNQLLEKWKQV) [SEQ ID NO: 25]”: the “Un-induced DiI Uptake” value in the data set on SR-BI (setting [4]) came to 0.24 ± 0.01 pmol/µg/mL. Further, the “Stability of Peptide/Phospholipid Complexes by Visual Inspection” value in data set [1] (setting [7]), in data set [1] (setting [8]), in data set [1] (setting [5]) and in data set [1] (setting [6]) was “Clear (A visually clear preparation indicated any nanoparticles that had formed were less than approximately 40 nm diameter)” in each case.
On to “DVFQKL{AIB}ELFNQL{AIB}EKWKQV (DVFQKL[Aib]ELFNQL[Aib]EKWKQV) [SEQ ID NO: 35]”, for which the “Un-induced DiI Uptake” value with SR-BI (setting [4]) came to 0.35 ± 0.01 pmol/µg/mL.
The same measure, in the same setting: for “DVFQ{AIB}LKELFNQLLEKWKQV (DVFQ[Aib]LKELFNQLLEKWKQV) [SEQ ID NO: 3]” the value was 0.16 ± 0.01 pmol/µg/mL; for “DVFQ{AIB}LKELLNQLLEKFKQV (DVFQ[Aib]LKELLNQLLEKFKQV) [SEQ ID NO: 5]”, 0.54 ± 0.03 pmol/µg/mL.
On to “DV{AIB}QKFLELFNQLLEKWKQV (DV[Aib]QKFLELFNQLLEKWKQV) [SEQ ID NO: 32]”, for which the “Un-induced DiI Uptake” value in the data set on SR-BI (setting [4]) is 0.28 ± 0.02 pmol/µg/mL. Moreover, the “Stability of Peptide/Phospholipid Complexes by Visual Inspection” value in data set [1] (setting [7]) is recorded as “Turbid”; in data set [1] (setting [8]), “Turbid”; in data set [1] (setting [5]) it was “Clear (A visually clear preparation indicated any nanoparticles that had formed were less than approximately 40 nm diameter)”; in data set [1] (setting [6]) it was “Turbid”.
On to “DV{AIB}QKLFELFNQLLEKWKQV (DV[Aib]QKLFELFNQLLEKWKQV) [SEQ ID NO: 27]”, for which the “Un-induced DiI Uptake” value in the data set on SR-BI (setting [4]) amounted to 0.34 ± 0.01 pmol/µg/mL. Also, the “Stability of Peptide/Phospholipid Complexes by Visual Inspection” value in data set [1] (setting [7]) is listed as “Turbid”; in data set [1] (setting [5]), “Clear (A visually clear preparation indicated any nanoparticles that had formed were less than approximately 40 nm diameter)”; in data set [1] (setting [6]) it was “Turbid”.
Take “DiI-labeled human HDL (Kalen Biomedical) (from UniProt P02647 25-267)”: in data set [2], the Increase Over Un-induced (DiI uptake, BHK(SR-BI) cells) came to 561% and the Induced DiI Uptake (pmol/ug/ml), BHK(SR-BI) cells induced for human SR-BI, 4 h amounted to 0.86 pmol/µg/mL.
Turning to “HDL: high density lipoprotein, human, labeled with DiI (Kalen Biomedical) [reference compound]”, the “Induced DiI Uptake” value in the data set on SR-BI (SR-BI induced (10 nM mifepristone) BHK(SR-BI) cells, 4 hours, PALM prepared with the peptide 32 μg/ml, HDL 19 μg/ml, average (n = 4) ± SEM) is 0.86 ± 0.03 pmol/µg/mL. Also, in the data set on SR-BI (induced vs un-induced DiI uptake), the “Increase Over Un-induced” value is recorded as 561%. The “Un-induced DiI Uptake” value in the data set with SR-BI (setting [4]) was 0.13 ± 0.02 pmol/µg/mL.
For DVFQ[Aib]LKELFNQLLEKWKQV (also: formulated in a micelle with POPC, egg sphingomyelin and DiI) [DiI-labeled PALM prepared with the peptide of SEQ ID NO: 3], in data set [3], the “Increase Over Un-induced (DiI uptake, BHK(SR-BI) cells)” value turned out to be 88% and the “Induced DiI Uptake (pmol/ug/ml), BHK(SR-BI) cells induced for human SR-BI, 4 h” value (shortened to “Induced DiI Uptake (pmol/ug/ml)”) stood at 0.29 pmol/µg/mL.

B1: DiI-labeled PALM prepared with the peptide of SEQ ID NO: 35 (peptide)
peptide: DVFQKL[Aib]ELFNQL[Aib]EKWKQV
modifications: also: formulated as DiI-labeled peptide amphiphile lipid micelle with POPC and egg sphingomyelin
Take B1: in data set [3], the “Increase Over Un-induced (DiI uptake, BHK(SR-BI) cells)” value amounted to 264% and the “Induced DiI Uptake (pmol/ug/ml)” value was determined as 1.26 pmol/µg/mL.
The like results for DVFQKLVELFNQLLEKWKQV (also: peptide amphiphile lipid micelle with POPC, egg sphingomyelin, DiI) [DiI-labeled PALM prepared with the peptide of SEQ ID NO: 26] were, in that order, 65% and 0.81 pmol/µg/mL.

B2: DiI-labeled PALM prepared with the peptide of SEQ ID NO: 25 (peptide)
peptide: DVFQKL[Aib]ELFNQLLEKWKQV
modifications: also: formulated as DiI-labeled peptide amphiphile lipid micelle with POPC and egg sphingomyelin
On to B2, for which, in data set [3], the “Increase Over Un-induced (DiI uptake, BHK(SR-BI) cells)” value turned out to be 245% and the “Induced DiI Uptake (pmol/ug/ml)” value was determined as 0.83 pmol/µg/mL.

B3: DiI-labeled PALM prepared with the peptide of SEQ ID NO: 27 (peptide)
peptide: DV[Aib]QKLFELFNQLLEKWKQV
modifications: also: formulated as DiI-labeled peptide amphiphile lipid micelle with POPC and egg sphingomyelin
For the molecule B3, in data set [3], the “Increase Over Un-induced (DiI uptake, BHK(SR-BI) cells)” value is 90% and the “Induced DiI Uptake (pmol/ug/ml)” value is 0.66 pmol/µg/mL.

B4: DiI-labeled PALM prepared with the peptide of SEQ ID NO: 5 (peptide)
peptide: DVFQ[Aib]LKELLNQLLEKFKQV
modifications: also: formulated as DiI-labeled peptide amphiphile lipid micelle with POPC and egg sphingomyelin
B4: in data set [3], the “Increase Over Un-induced (DiI uptake, BHK(SR-BI) cells)” value was 73% and the “Induced DiI Uptake (pmol/ug/ml)” value turned out to be 0.93 pmol/µg/mL.

B5: DiI-labeled PALM prepared with the peptide of SEQ ID NO: 32 (peptide)
peptide: DV[Aib]QKFLELFNQLLEKWKQV
modifications: also: formulated as DiI-labeled peptide amphiphile lipid micelle with POPC and egg sphingomyelin
In the case of B5, in data set [3], the “Increase Over Un-induced (DiI uptake, BHK(SR-BI) cells)” value was 221% and the “Induced DiI Uptake (pmol/ug/ml)” value was found to be 0.9 pmol/µg/mL.

The values above are taken from US20240189230A1, “PALM FOR THE TREATMENT OF CHEMOTHERAPY-INDUCED PERIPHERAL NEUROPATHY INCIDENTAL TO THE TREATMENT OF CANCER” (Peptinovo Biopharma Inc., priority 2019, published 2024).
